Assay results taken from patent publication US20230212549A1, “COMPOUNDS COMPRISING A […] LIGAND AND USE THEREOF” (priority 2021, published 2023).

Key:
[1] = molecular target: human fibroblast activation protein (FAP) on WI-38 fibroblasts (human) (UniProt Q12884); assay: competitive FACS, WI-38 cells, Cy5-labeled peptide as competitor
mu (MOP) (h) (human) = mu (MOP) (h) (human) (UniProt P35372); assay: reference compound of the radioligand binding assay (Ki Ref)
[2] = molecular target: fibroblast activation protein (FAP) on FAP-expressing human WI-38 fibroblasts (human) (UniProt Q12884); assay: competitive FACS, WI-38 cells, vs Cy5 tracer m3; D = pIC50 <=6.0
delta (DOP) (h) (human) = delta (DOP) (h) (human) (UniProt P41143); assay: reference compound of the radioligand binding assay (Ki Ref)
Chain of delta (DOP) (h) (human) (P41143 whole entry, stated change not applied): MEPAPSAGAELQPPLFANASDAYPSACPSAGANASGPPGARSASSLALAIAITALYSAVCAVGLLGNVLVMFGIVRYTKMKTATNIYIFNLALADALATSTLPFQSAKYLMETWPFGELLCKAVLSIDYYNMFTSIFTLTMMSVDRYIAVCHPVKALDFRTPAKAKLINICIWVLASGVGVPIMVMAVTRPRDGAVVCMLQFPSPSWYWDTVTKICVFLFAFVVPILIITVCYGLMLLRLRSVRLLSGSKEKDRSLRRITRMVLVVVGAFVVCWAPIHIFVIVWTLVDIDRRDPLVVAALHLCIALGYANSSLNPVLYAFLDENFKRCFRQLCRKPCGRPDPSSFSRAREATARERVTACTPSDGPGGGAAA

[3] = molecular target: human fibroblast activating protein (FAP) on WI-38 fibroblasts (human) (UniProt Q12884); assay: competitive FACS on WI-38 cells vs 3 nM Cy5-labeled peptide; pIC50 category D = ≤6.0

Chain of mu (MOP) (h) (human) (P35372 whole entry): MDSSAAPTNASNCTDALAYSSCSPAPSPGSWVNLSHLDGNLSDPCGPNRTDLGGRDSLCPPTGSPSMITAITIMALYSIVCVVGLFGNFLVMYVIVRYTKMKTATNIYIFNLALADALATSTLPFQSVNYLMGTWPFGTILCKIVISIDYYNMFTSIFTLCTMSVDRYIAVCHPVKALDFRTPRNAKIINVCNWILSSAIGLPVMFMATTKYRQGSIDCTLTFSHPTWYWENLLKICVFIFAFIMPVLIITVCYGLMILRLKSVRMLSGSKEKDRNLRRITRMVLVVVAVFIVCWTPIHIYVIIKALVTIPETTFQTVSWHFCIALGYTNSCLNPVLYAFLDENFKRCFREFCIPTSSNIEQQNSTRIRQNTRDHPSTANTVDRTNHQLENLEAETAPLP

| pIC50 Category (FACS) [1] [pIC50] | also measured | Substance |
| --- | --- | --- |
| < 6 | – | Ac-Aad-[Cys(3MeBn)-Pro-Pro-Thr-Gln-Phe-Cys]-NH2 (peptide) |
| – | Ki (mu (MOP) (h) (human)): 0.37 nM | DAMGO (peptide) |
| – | pIC50 Category (FACS) [2]: < 6 pIC50 | DOTA-Ttds-Hci-[Cys(3MeBn)-Pro-Pro-Thr-Gln-Phe-Cys]-Bal-OH (peptide) |
| – | Ki (delta (DOP) (h) (human)): 1.2 nM | DPDPE (peptide) |
| < 6 | – | H-Ahx-[Cys(3MeBn)-Pro-Pro-Thr-Gln-Phe-Cys]-NH2 (peptide) |
| < 6 | – | H-Ava-[Cys(3MeBn)-Pro-Pro-Thr-Gln-Phe-Cys]-NH2 (peptide) |
| < 6 | – | H-Gab-[Cys(3MeBn)-Pro-Pro-Thr-Gln-Phe-Cys]-NH2 (peptide) |
| – | pIC50 [3]: < 6 pic50 | N4Ac-PPAc-Bal--Nle-[C(3MeBn)-PPTEFC]-OH (peptide) |
| < 6 | – | N4Ac-Ttds-Glu(AGLU′)-Nle-[Cys-(3MeBn)-Pro-Pro-Thr-Gln-Phe-Cys]-OH (peptide) |
| < 6 | – | N4Ac-gGlu-Nle-[Cys-(3MeBn)-Pro-Pro-Thr-Gln-Phe-Cys]-OH (peptide) |
